Test results taken from doi:10.1101/2024.06.17.599268 (bioRxiv, 2024).
Where a chain is given by its changes, count along the chain named. Names may count otherwise.

T1: bMERB_(M992A_I993A) (human, UniProt Q8TDZ2 918-1067, M992A | I993A)
T1 sequence: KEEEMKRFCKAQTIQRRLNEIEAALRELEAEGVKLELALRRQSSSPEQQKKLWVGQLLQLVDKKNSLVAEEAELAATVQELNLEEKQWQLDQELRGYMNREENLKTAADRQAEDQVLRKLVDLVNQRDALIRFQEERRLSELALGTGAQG

T2: Mical1 bMERB domain (residues 918-1067) (human, UniProt Q8TDZ2 918-1067)
T2 sequence: T1 sequence with A75M, A76I

T3: bMERB_(L1047A_F1050A) (human, UniProt Q8TDZ2 918-1067, L1047A | F1050A)
T3 sequence: T1 sequence with A75M, A76I, L130A, F133A

T4: full-length Mical1 (human, UniProt Q8TDZ2 1-1067)
T4 sequence: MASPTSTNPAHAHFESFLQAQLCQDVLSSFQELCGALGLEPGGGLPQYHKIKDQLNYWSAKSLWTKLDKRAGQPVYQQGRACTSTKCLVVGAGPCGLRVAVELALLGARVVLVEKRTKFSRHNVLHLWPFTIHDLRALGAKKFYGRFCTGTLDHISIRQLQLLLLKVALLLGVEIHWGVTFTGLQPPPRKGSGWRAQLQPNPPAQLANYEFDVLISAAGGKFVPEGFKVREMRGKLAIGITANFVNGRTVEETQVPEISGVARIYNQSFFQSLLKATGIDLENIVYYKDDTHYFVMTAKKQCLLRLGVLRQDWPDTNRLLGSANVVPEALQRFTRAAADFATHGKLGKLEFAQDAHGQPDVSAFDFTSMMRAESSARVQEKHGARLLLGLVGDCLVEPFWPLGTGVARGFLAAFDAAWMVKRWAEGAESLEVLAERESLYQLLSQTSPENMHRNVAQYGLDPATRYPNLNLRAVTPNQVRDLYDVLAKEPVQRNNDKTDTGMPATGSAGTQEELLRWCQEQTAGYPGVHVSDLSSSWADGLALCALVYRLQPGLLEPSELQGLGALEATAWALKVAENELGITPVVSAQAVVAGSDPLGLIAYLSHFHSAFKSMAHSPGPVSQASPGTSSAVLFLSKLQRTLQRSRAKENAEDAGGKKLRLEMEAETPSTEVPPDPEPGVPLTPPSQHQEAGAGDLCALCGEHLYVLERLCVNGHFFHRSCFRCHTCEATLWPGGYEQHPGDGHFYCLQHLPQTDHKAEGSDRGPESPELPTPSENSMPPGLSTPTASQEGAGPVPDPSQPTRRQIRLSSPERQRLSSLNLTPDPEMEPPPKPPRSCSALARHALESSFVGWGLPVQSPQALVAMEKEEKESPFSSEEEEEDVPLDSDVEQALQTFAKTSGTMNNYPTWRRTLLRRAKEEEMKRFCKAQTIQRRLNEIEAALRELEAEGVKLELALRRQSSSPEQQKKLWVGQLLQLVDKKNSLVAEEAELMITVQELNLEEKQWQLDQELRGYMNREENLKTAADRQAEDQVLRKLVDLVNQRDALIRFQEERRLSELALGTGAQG

T5: Rab10_(1-175) (human, UniProt P61026 1-175)
T5 sequence: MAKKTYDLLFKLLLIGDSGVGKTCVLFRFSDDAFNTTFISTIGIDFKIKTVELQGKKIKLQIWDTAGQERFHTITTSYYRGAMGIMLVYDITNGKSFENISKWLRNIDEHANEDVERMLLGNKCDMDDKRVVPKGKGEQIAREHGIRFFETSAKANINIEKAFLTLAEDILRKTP

T6: Mical1 MO-CH-LIM (residues 1-781) (human, UniProt Q8TDZ2 1-781)
T6 sequence: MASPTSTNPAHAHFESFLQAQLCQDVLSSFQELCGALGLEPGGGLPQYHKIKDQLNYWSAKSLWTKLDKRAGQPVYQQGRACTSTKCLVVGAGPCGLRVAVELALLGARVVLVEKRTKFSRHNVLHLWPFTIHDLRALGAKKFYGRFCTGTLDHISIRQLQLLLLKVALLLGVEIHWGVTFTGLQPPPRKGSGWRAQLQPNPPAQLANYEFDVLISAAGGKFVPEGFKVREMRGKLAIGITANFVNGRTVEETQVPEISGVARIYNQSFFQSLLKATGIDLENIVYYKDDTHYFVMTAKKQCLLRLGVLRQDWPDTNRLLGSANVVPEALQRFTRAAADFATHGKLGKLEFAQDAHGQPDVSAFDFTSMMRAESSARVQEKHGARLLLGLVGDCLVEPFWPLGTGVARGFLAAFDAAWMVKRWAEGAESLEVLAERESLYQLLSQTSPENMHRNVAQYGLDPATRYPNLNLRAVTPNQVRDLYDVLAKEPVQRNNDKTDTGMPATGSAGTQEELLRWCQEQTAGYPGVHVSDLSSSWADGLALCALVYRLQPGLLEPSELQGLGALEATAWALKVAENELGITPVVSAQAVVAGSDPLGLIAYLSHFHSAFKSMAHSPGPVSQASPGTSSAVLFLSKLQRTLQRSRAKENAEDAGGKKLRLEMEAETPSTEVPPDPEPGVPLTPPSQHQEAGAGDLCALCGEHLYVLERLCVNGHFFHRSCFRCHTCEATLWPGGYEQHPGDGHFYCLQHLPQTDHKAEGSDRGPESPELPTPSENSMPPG

T7: Rab15_(1-176) (human, UniProt P59190 1-176)
T7 sequence: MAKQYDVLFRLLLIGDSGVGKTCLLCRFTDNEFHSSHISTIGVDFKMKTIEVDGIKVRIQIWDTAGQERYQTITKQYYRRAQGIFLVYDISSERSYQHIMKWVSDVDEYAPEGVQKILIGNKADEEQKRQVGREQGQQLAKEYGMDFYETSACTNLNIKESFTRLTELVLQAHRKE

T8: Rab13_(1-176) (human, UniProt P51153 1-176)
T8 sequence: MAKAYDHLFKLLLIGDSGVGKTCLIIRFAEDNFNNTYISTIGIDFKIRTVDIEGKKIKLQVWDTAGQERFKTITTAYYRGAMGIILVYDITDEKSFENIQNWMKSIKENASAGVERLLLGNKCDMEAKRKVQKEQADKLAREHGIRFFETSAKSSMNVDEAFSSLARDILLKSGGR

B1: Rab8a_(1-176) (natural protein)
chain: MAKTYDYLFKLLLIGDSGVGKTCVLFRFSEDAFNSTFISTIGIDFKIRTIELDGKRIKLQIWDTAGQERFRTITTAYYRGAMGIMLVYDITNEKSFDNIRNWIRNIEEHASADVEKMILGNKCDVNDKRQVSKERGEKLALDYGIKFMETSAKANINVENAFFTLARDIKAKMDKK
B2: bMERB_(V978A) (domain or fragment)
chain: T1 sequence with V61A, A75M, A76I
B3: bMERB_(S960D) (domain or fragment)
chain: T1 sequence with S43D, A75M, A76I
B4: bMERB_(V978A_V985A) (domain or fragment)
chain: T1 sequence with V61A, V68A, A75M, A76I

How the values were obtained:
[1] = biological target: T1, bMERB_(M992A_I993A); test: ITC
[2] = biological target: T2, Mical1 bMERB domain (residues 918-1067); test: ITC
[3] = biological target: B4; test: ITC
[4] = biological target: T3, bMERB_(L1047A_F1050A); test: ITC
[5] = biological target: T4, full-length Mical1; test: ITC
[6] = biological target: B1; test: ITC
[7] = biological target: T5, Rab10_(1-175); test: crystal structure
[8] = biological target: T6, Mical1 MO-CH-LIM (residues 1-781); test: ITC
[9] = biological target: T7, Rab15_(1-176); test: ITC
[10] = biological target: T5, Rab10_(1-175); test: ITC
[11] = biological target: T7, Rab15_(1-176); test: SEC
[12] = biological target: B1; test: SEC
[13] = biological target: T5, Rab10_(1-175); test: SEC
[14] = biological target: T8, Rab13_(1-176); test: SEC

B1
fold decrease in N-terminal (Nt-RBS1) Rab binding against wild-type bMERB [1]: > 30 fold | stoichiometry N [2]: 2 | stoichiometry N [3]: 1 | fold decrease in C-terminal (Ct-RBS2) Rab8 binding against wild-type bMERB [4]: > 20 fold | fold decrease in N-terminal (Nt-RBS1) Rab binding against wild-type bMERB [4]: 10 fold | stoichiometry N [5]: 2

B2
binding result [6]: binds | binding result [7]: binds | fold reduction in affinity against wild-type bMERB [8]: 2 fold

B3
binding result [9]: binds | binding result [6]: binds | binding result [10]: binds | binding result [8]: binds

B4
binding result [11]: binds | binding result [12]: binds | binding result [13]: binds | binding result [14]: binds
